Tests used:
[1] = biological target: T1, IL-18 receptor (IL-18Rαβ) on cells (UniProt Q13478 19-541; O95256 20-599, limits assumed); test: cell-based or functional assay
T1 sequence (looked up) 1: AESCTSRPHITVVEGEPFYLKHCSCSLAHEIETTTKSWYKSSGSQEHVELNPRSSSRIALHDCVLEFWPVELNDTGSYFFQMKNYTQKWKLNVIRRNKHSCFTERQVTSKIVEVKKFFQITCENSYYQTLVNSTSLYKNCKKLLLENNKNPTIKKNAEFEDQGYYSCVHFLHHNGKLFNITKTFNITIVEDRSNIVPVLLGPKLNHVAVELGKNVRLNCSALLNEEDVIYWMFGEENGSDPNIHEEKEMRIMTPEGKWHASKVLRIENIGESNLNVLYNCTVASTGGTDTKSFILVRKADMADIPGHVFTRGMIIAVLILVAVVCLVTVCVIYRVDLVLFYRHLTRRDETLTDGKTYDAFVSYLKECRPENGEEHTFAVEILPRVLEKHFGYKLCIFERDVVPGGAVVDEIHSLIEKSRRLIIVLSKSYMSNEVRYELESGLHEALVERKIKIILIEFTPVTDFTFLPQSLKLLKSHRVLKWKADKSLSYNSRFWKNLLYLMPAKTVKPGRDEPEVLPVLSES
T1 sequence (looked up) 2: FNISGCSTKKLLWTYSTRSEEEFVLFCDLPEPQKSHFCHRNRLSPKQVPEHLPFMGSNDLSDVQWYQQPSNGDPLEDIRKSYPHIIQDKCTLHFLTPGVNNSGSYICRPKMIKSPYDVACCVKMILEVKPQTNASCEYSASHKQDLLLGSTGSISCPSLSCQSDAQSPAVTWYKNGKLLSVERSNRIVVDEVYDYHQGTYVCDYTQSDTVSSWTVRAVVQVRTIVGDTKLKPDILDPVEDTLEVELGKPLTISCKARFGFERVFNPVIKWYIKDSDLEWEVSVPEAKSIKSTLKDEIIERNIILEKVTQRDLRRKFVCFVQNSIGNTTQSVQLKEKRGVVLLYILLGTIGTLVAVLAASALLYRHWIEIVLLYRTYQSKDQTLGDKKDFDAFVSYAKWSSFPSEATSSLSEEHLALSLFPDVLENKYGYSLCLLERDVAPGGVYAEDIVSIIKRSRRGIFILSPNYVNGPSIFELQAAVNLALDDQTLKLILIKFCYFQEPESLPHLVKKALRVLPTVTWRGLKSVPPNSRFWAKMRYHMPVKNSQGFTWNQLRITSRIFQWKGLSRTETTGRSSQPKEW

[2] = biological target: T1, IL-18 receptor (IL-18Rαβ) on cells; test: cell-based or functional assay; remark: listed apart in the source

B1: C191 (ligand)
chain: YFGKLKSKLSIIRNLNDQVLFIDQGNRPLFEDMTDSDARDNAPRTIFIISMYADSQPRGMAVAISVKCEKISTLSAENKIISFKEMNPPDNIKDTKSDIIFFQRSVPGHDNKMQFESSSYEGYFLAAEKERDLFKLILKKEDELGDRSIMFTVQNESGGPLGLAGGSNIVPVLLGPKLNHVAVELGKNVRLNCSALLNEEDVIYWMFGEENGSDPNIHEEKEMRIMTPEGKWHASKVLRIENIGESNLNVLYNCTVASTGGTDTKSFILVRKADHHHHHH
B1 was tested, and the “Hek Blue reporter assay EC50” value [1] was 0.00202 nM, the “Fold potency loss vs C086” value [2] was 48 fold and the “HEK-blue EC50” value [2] was 2.02 nM.

B2: C137 (ligand)
chain: YFGKLKSKLSIIRNLNDQVLFIDQGNRPLFEDMTDSDARDNAPRTIFIISMYADSQPRGMAVAISVKCEKISTLSAENKIISFKEMNPPDNIKDTKSDIIFFQRSVPGHDNKMQFESSSYEGYFLAAEKERDLFKLILKKEDELGDRSIMFTVQNEGGGGSGGGGSGGGGSNIVPVLLGPKLNHVAVELGKNVRLNCSALLNEEDVIYWMFGEENGSDPNIHEEKEMRIMTPEGKWHASKVLRIENIGESNLNVLYNCTVASTGGTDTKSFILVRKADHHHHHH
In the case of B2, the “Hek Blue reporter assay EC50” value [1] is reported as 0.00208 nM, the “Fold potency loss vs C086” value [2] is reported as 49 fold and the “HEK-blue EC50” value [2] is reported as 2.08 nM.

B3: C127 (ligand)
chain: MAAEPVEDNCINFVAMKFIDNTLYFIAEDDENLESDSGGPGPAGMKGLPGSYFGKLKSKLSIIRNLNDQVLFIDQGNRPLFEDMTDSDARDNAPRTIFIISMYADSQPRGMAVAISVKCEKISTLSAENKIISFKEMNPPDNIKDTKSDIIFFQRSVPGHDNKMQFESSSYEGYFLAAEKERDLFKLILKKEDELGDRSIMFTVQNED
For B3, the “Hek Blue reporter assay EC50” value [1] was 0.295 nM, the “Fold potency loss vs C086” value [2] was 7000 fold and the “HEK-blue EC50” value [2] was 295 nM.

B4: C136 (ligand)
chain: YFGKLKSKLSIIRNLNDQVLFIDQGNRPLFEDMTDSDARDNAPRTIFIISMYADSQPRGMAVAISVKCEKISTLSAENKIISFKEMNPPDNIKDTKSDIIFFQRSVPGHDNKMQFESSSYEGYFLAAEKERDLFKLILKKEDELGDRSIMFTVQNEGGSGGSNIVPVLLGPKLNHVAVELGKNVRLNCSALLNEEDVIYWMFGEENGSDPNIHEEKEMRIMTPEGKWHASKVLRIENIGESNLNVLYNCTVASTGGTDTKSFILVRKADHHHHHH
B4 was tested, and the “Hek Blue reporter assay EC50” value [1] was 0.000884 nM, the “Fold potency loss vs C086” value [2] was 21 fold and the “HEK-blue EC50” value [2] was 0.884 nM.

B5: C189 (ligand)
chain: YFGKLKSKLSIIRNLNDQVLFIDQGNRPLFEDMTDSDARDNAPRTIFIISMYADSQPRGMAVAISVKCEKISTLSAENKIISFKEMNPPDNIKDTKSDIIFFQRSVPGHDNKMQFESSSYEGYFLAAEKERDLFKLILKKEDELGDRSIMFTVQNESGGPGPAGMKGLPGSNIVPVLLGPKLNHVAVELGKNVRLDCSALLNEEDVIYWMFGEEDGSDPNIHEEKEMRIMTPEGKWHASKVLRIENIGESNLNVLYDCTVASTGGTDTKSFILVRKADHHHHHH
In the case of B5, the “Hek Blue reporter assay EC50” value [1] is reported as 0.00043 nM, the “Fold potency loss vs C086” value [2] is reported as 10 fold and the “HEK-blue EC50” value [2] is reported as 0.43 nM.

B6: C190 (ligand)
chain: MAAEPVEDNCINFVAMKFIDNTLYFIAEDDENLESDYFGKLKSKLSIIRNLNDQVLFIDQGNRPLFEDMTDSDARDNAPRTIFIISMYADSQPRGMAVAISVKCEKISTLSAENKIISFKEMNPPDNIKDTKSDIIFFQRSVPGHDNKMQFESSSYEGYFLAAEKERDLFKLILKKEDELGDRSIMFTVQNED
B6 was tested, and the “Hek Blue reporter assay EC50” value [1] was 0.404 nM and the “HEK-blue EC50” value [2] was 404 nM.

B7: C190 + MMP9 (ligand)
chain: MAAEPVEDNCINFVAMKFIDNTLYFIAEDDENLESDYFGKLKSKLSIIRNLNDQVLFIDQGNRPLFEDMTDSDARDNAPRTIFIISMYADSQPRGMAVAISVKCEKISTLSAENKIISFKEMNPPDNIKDTKSDIIFFQRSVPGHDNKMQFESSSYEGYFLAAEKERDLFKLILKKEDELGDRSIMFTVQNED
With B7 the “Hek Blue reporter assay EC50” value [1] was 0.198 nM and the “HEK-blue EC50” value [2] was 198 nM.
